# From patent publication US20080274112A1, “Nogo Receptor Antagonists” (priority 2003, published 2008)
# How the values were obtained:
# chick neurons = assay: Neurite outgrowth assay using chick neurons; format: cell-based
# DRG neurons = assay: Neurite outgrowth assay, myelin mixed with test protein (Example 10); format: cell-based; details: P3-4 rat DRG; spotted mixed with CNS myelin
# Description: Lab-Tek® culture slides (4 wells) were coated with 0.1 mg/ml poly-D-lysine (Sigma®). CNS myelin alone or mixed with sNogoR310, sNogoR310-Fc fusion protein, mAb 5B10 or control PBS were separately spotted as 3 μl drops. Fluorescent microspheres (Polysciences) were added to the myelin/PBS to allow later identification of the drops (Grandpre et al, Nature 403, 2000). Lab-Tek® slides were then rinsed and coated with 10 μg/ml laminin (Gibco™).
# Dorsal root ganglions (DRG's) from P3-4 Sprague Dawley rat pups were dissociated with 1 mg/ml collagenase type 1 (Worthington), triturated with fire-polished Pasteur pipettes pre-plated to enrich in neuronal cells and finally plated at 23,000 cells/well on the pre-coated Labtek culture slides. The culture medium was F12 containing 5% heat inactivated donor horse serum, 5% heat inactivated fetal bovine serum and 50 ng/ml MNGF and incubated at 37° C. and 5% CO2 for 6 hours.
# Slides were fixed for 20 minutes with 4% paraformaldehyde containing 20% sucrose and stained for the neuronal marker anti beta-III-tubulin (Covance TUJ1) diluted 1:500. As secondary antibody anti-mouse Alexa Fluor® 594 (Molecular Probes) was diluted 1:300 and slides were coverslipped with Gel/Mount™ (Biømeda™). 5× digital images were acquired with OpenLab™ software and analyzed by using the MetaMorph® software for quantification of neurite outgrowth.
# [1] = system: mouse spinal cord dorsal over-hemisection; assay: Dorsal over-hemisection in gfap::sNogoR310 transgenic mice; format: in vivo
# From the text: (§1) The Basso-Beattie-Bresnahan (BBB) locomotor rating scale (Basso et al., 1996, Neurotrauma 13, 343-359), the inclined plane test and the inclined grid walking test (Li and Strittmatter, 2003, J Neurosci. 2003, 23, 4219-27) were monitored in rats and mice after injury. For the inclined plane test, we measured the maximal angle to which a 50 cm×60 cm board could be angled for 5 sec without the mouse sliding off. For inclined grid walking, the mice were trained to climb a wire grid (35 cm long with 2.54 cm squares) at a slope of 45 degrees. The number of instances in which the hindpaw dropped below the grid plane was scored for each excursion from bottom to top. For the rat behavioral testing, BBB locomotor scale, grid walking and footprint analysis were performed. For grid walking, the rats were trained to walk on a wire grid (70 cm long with 2.54 cm squares), and the number of instances in which the hindpaw dropped below the grid plane was counted. For footprint analysis, the walking patterns of rat hindpaws were recorded with ink during a continuous locomotion across a 90 cm runway, and stride length on each side and stride width were calculated (Metz et al., 2000, Brain Res., 883, 165-177). All of these behavioral tests were performed by at least two individuals. Throughout the surgery, behavioral testing and histologic analysis, researchers were blind to the identity of the compound in the minipump.
# We cloned the mouse sNogoR310 cDNA (corresponding to amino acids 1-310 of the Nogo receptor-1) into the NotI site of the C-3123 vector. In this vector, sNogoR310 expression is under the control of the glial fibrillary acidic protein (gfap) gene regulatory elements, which allow high level expression with enhanced secretion from reactive astrocytes at site of injury. We digested the resulting vector sequentially with AatII and SfiI and isolated the gfap::sNogoR310 construct on a 3.4 kb fragment. We microinjected this fragment into embryos to generate transgenic mice. We verified by PCR that the transgene had integrated and identified five founder lines. We crossed heterozygous males of the two founder lines with the highest expression levels to female C57BL/6J mice. We confirmed that the GFAP-positive cells express and secrete sNogoR310 in heterozygous transgenic mice by Western blot analysis using antibody raised against Nogo receptor-1.
# We deeply anesthetized adult female heterozygous transgenic or littermate WT mice (10-16 weeks of age) and performed a complete laminectomy, fully exposing the dorsal part of spinal cord at T6 and T7 levels. We performed a dorsal over-hemisection at T6 with a 30-gauge needle and a pair of microscissors to completely sever the dorsal and dorsolateral corticospinal tracts (CSTs). We passed a marked needle across the dorsal part of the spinal cord several times to assure that the lesion was at a depth of 1.0 mm. We sutured the muscle layers over the laminectomies and closed the skin on the back with surgical staples. To trace the corticospinal tracts, we made a burr hole overlying cerebral cortex on the right side into the skull 14 days after spinal cord injury. We applied the tracer BDA (MW 10,000, 10% in PBS) (Molecular Probes, Eugene, Oreg.) to 4 injection sites at a depth of 0.7 mm from the cortical surface. Four weeks after injury, the mice were perfused transcardially with PBS, followed by 4% paraformaldehyde.
# We investigated the integrity of descending corticospinal tracts (CST) by injecting anterograde tracer biotin dextran amine (BDA) into the right motor cortex as described in Li and Strittmatter, 2003, J. Neurosci., 23, 4219-27. In littermate WT mice, the prominent dorsal CST (dCST) is tightly bundled rostral to the lesion, and a few dorsolateral CST fibers are visible ipsilaterally. A small number of BDA-labeled short collateral sprouts project into gray matter, particularly in the ventral cord, but the sprouting is largely confined to the side of the cord contralateral to the tracer injection. […]
# Nogo receptor-1 = assay: Blocking of ligand binding to Nogo receptor-1 by soluble receptors
# [2] = system: rat spinal cord dorsal hemisection; assay: Intrathecal sNogoR310-Fc in rats with mid-thoracic dorsal hemisection; format: in vivo
# From the text: as §1
# We isolated spinal cord 4 mm rostral to and 4 mm caudal to the lesion site (8 mm long in total) from transgenic mice and embedded it in a glutaraldehyde-polymerized albumin matrix, and cut parasagittally on a vibratome (30 μm thick). We collected transverse sections (50 μm) from the spinal cord 5-7 mm rostral to and 5-7 mm caudal, to the injury site. For sNogoR310-Fc injection experiments in rats, the spinal cord extending from 10 mm rostral to 10 mm caudal from the lesion site was cut parasaggitally (50 μm) on a vibrating microtome. Transverse sections were collected from the spinal cord 11-16 mm rostral to and 11-16 mm caudal to the injury site. We incubated the sections with avidin-biotin-peroxidase complex and visualized the BDA tracer by nickel-enhanced diaminobenzidine HRP reaction (Grandpre, 2002, Nature, 417, 547-551). We processed some sections for serotonin immunohistochemistry (anti-5-HT antibody) by indirect immunofluoresence. To visualize the lesion area, we double-stained some sections with antibodies directed against GFAP (Sigma®, St. Louis, Mo.). We mounted, dehydrated and covered the sections with mounting medium.
# We fused the ligand binding domain (27-310) of rat Nogo receptor-1 to the rat IgG1 Fc domain to promote stability and purification. We purified protein from stably transfected CHO cells. […]
# Nogo-66, MAG and myelin = assay: Blocking of Nogo-66, MAG and myelin action in vitro
"blocking of binding of NogoA, NogoB, NogoC, MAG and OM-gp to Nogo receptor-1 (Nogo receptor-1)",Molecule,protection in similar assay using chick neurons (chick neurons),protection from myelin-mediated inhibition of neurite outgrowth (DRG neurons),grid climbing ([1]; 2-6 weeks post-injury),"BDA-labeled regenerating fibers in the rostral-caudal axis ([1]; any level 1-4 mm caudal to the lesion, each transgenic mouse)",sustainable inclined plane angle ([1]; days 7-28 after injury vs control),"BBB scores ([1]; lines Tg08 and Tg01 vs control, 7-28 days)",fibers on the opposite side of the spinal cord (ipsilateral to tracer injection) ([1]; rostral to dorsal hemisection),"sprouting density of collateral sprouts (micro densitometric measurement) ([1]; rostral to lesion, transgenic vs WT)",CST sprouting ([1]; secreted in transgenic mice),serotonin fibers in ventral horn of caudal spinal cord ([1]; transgenic vs WT),animals with consistent forelimb-hindlimb coordination and parallel paw position ([2]; 4 weeks after injury),total collateral length of each sprout versus NEP 1-40-treated animals ([2]; distal spinal cord),serotonin fibers versus control group ([2]; sections 11-15 mm below the lesion),rubrospinal tract fibers distal to SCI ([2]; transverse sections 11-15 mm distal),"blocking of Nogo-66, MAG and myelin action (Nogo-66, MAG and myelin)"
block the binding,"sNogoR310: soluble Nogo receptor-1 polypeptide, residues 26-310 (human) or 27-310 (rat); mouse form expressed in transgenic mice (protein) CPGACVCYNEPKVTTSRPQQGLQAVPAGIPASSQRIFLHGNRISYVPAASFQSCRNLTILWLHSNALAGIDAAAFTGLTLLEQLDLSDNAQLRVVDPTTFRGLGHLHTLHLDRCGLQELGPGLFRGLAALQYLYLQDNNLQALPDNTFRDLGNLTHLFLHGNRIPSVPEHAFRGLHSLDRLLLHQNHVARVHPHAFRDLGRLMTLYLFANNLSMLPAEVLVPLRSLQYLRLNDNPWVCDCRARPLWAWLQKFRGSSSGVPSNLPQRLAGRDLKRLATSDLEGCA",protective,protected,progressive improvement,5-15,significantly greater,significantly higher,4-12 sprouts per transverse section,approximately a tenfold increase,induces CST sprouting,much greater number,–,–,–,–,–
–,"sNogoR310-Fc: fusion protein comprising amino acids 26-310 of rat Nogo receptor-1 and a rat Fc fragment (protein, left off: a dimerising Fc or GST, fusion protein comprising amino acids 26-310 of rat Nogo receptor-1 and a rat Fc fragment) PCPGACVCYNEPKVTTSRPQQGLQAVPAGIPASSQRIFLHGNRISYVPAASFQSCRNLTILWLHSNALAGIDAAAFTGLTLLEQLDLSDNAQLRVVDPTTFRGLGHLHTLHLDRCGLQELGPGLFRGLAALQYLYLQDNNLQALPDNTFRDLGNLTHLFLHGNRIPSVPEHAFRGLHSLDRLLLHQNHVARVHPHAFRDLGRLMTLYLFANNLSMLPAEVLVPLRSLQYLRLNDNPWVCDCRARPLWAWLQKFRGSSSGVPSNLPQRLAGRDLKRLATSDLEGCA",–,protected,–,–,–,–,–,–,–,–,all 9,twice as great,twice as numerous,many BDA-labeled RST fibers,blocks
